Laboratory results reported in PMC12170906.

Biological target: RNAP-SigA holoenzyme (Mycobacterium tuberculosis, UniProt P9WGZ1;P9WGY9;P9WGY7;P9WGI1 1-347;1-1178;1-1316;1-528)
Test: EMSA
Conditions: protein: recombinant; chain copies: 2;1;1;1; blunt

Sequence of RNAP-SigA holoenzyme (P9WGZ1 whole entry, chain 1 of 4): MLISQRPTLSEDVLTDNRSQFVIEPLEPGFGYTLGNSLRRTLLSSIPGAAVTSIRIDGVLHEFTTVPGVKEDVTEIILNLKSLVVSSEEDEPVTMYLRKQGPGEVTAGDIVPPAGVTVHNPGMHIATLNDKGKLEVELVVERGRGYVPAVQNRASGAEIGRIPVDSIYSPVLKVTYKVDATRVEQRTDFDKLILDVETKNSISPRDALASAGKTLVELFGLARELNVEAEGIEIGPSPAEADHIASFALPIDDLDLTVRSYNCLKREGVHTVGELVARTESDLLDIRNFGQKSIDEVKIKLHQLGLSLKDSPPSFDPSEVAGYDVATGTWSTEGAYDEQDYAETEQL
Sequence of RNAP-SigA holoenzyme (P9WGY9 whole entry, chain 2 of 4): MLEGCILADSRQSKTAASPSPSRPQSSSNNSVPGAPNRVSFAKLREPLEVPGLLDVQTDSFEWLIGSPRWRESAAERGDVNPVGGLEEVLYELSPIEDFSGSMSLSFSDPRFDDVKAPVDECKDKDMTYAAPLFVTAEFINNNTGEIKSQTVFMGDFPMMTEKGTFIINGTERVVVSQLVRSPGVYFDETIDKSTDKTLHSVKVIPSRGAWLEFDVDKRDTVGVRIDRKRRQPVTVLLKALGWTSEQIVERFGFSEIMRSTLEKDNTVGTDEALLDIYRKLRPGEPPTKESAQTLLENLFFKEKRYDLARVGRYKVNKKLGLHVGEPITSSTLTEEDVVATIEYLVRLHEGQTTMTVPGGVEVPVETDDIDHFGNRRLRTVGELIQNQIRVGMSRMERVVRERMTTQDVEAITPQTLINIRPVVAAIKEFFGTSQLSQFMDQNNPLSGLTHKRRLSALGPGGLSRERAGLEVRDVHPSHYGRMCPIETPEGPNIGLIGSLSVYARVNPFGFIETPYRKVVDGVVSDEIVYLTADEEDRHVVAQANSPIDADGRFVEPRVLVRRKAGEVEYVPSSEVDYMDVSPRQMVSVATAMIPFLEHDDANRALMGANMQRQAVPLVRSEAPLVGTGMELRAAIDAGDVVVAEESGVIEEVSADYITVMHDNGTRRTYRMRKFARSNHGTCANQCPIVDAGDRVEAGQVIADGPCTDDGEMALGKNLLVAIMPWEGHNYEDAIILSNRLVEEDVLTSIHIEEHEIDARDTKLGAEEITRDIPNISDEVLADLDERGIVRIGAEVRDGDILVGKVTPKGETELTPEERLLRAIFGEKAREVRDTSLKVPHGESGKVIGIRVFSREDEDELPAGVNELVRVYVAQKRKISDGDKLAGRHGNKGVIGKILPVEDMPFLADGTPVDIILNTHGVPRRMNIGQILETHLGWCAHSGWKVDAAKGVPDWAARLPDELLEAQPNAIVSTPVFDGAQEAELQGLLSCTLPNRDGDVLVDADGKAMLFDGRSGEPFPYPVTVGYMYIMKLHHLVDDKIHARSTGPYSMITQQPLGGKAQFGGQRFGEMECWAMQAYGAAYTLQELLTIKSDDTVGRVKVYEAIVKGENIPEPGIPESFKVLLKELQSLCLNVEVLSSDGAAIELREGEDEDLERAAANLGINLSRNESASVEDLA
Sequence of RNAP-SigA holoenzyme (P9WGY7 whole entry, chain 3 of 4): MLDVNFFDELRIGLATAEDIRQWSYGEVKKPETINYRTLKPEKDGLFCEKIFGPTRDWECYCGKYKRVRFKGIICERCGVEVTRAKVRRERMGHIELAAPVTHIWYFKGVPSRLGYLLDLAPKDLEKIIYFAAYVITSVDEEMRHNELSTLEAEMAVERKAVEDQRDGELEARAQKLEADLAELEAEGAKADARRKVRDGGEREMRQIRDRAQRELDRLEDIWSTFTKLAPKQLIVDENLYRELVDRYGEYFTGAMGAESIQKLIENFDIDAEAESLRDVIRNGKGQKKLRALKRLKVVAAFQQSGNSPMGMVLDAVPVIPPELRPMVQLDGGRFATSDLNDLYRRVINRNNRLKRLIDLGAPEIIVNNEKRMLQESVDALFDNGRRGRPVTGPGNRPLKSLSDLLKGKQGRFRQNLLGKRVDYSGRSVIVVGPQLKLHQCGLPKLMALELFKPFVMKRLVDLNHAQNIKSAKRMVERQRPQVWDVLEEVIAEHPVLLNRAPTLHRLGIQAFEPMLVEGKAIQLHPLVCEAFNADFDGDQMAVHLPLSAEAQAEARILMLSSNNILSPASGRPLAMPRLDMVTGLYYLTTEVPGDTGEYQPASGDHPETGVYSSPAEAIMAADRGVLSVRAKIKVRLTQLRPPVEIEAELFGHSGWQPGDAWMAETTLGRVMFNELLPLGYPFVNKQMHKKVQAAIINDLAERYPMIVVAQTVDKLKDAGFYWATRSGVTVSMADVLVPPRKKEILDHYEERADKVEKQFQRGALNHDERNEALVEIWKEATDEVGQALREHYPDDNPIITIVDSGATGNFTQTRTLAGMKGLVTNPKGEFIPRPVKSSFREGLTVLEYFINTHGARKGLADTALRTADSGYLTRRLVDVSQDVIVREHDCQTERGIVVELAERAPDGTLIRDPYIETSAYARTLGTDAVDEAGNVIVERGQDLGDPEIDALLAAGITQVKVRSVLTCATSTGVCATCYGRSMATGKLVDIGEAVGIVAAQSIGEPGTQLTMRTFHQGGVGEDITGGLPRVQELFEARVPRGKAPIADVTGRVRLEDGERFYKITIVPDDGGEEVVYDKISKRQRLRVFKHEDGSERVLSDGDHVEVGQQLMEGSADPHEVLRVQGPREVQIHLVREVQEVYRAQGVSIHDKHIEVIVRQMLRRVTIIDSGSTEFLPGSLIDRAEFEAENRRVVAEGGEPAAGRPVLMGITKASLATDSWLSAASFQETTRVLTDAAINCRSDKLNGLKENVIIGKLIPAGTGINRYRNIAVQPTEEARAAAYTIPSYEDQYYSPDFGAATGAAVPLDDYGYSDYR
Sequence of RNAP-SigA holoenzyme (P9WGI1 whole entry, chain 4 of 4): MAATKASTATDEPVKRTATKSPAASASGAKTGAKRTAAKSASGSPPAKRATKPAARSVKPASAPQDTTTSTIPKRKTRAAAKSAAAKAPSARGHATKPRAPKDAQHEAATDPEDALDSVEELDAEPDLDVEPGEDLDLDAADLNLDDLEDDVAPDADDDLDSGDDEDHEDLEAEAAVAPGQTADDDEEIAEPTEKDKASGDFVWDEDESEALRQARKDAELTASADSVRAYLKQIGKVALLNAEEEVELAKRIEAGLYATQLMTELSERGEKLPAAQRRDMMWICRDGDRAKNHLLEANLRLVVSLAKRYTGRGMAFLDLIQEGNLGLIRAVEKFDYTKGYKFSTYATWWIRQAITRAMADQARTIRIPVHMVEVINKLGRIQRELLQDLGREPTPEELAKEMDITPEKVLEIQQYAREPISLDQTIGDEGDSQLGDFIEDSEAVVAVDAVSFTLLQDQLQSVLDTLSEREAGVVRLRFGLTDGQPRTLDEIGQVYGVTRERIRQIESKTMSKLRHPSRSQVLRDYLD

B1: rrnAP3/ADPr (non-template strand modified) (dsDNA)
DNA 1: CTATGGATGACCGAACCTGGTCTTGACTCCATTGCCGGATTTGTATTAGACTGGCAGGGTCGCCCCGAAGCGGGCGGAAACAAGCAAGCGTGTTGTTTGAGAACTC
DNA 2: GAGTTCTCAAACAACACGCTTGCTTGTTTCCGCCCGCTTCGGGGCGACCCTGCCAGTCTAATACAAATCCGGCAATGGAGTCAAGACCAGGTTCGGTCATCCATAG
modifications: ADP-ribosyl-thymidine on strand 1 (non-template; DarT; positions inferred near -10 in Fig 3A)
  binding result: binds
